Measurements published in patent US20180360932A1 (OPKO BIOLOGICS, published 2018).

Legend:
[1] = target: MOD-5014 (FVIIa-CTP3, activated Factor VII-CTP-CTP-CTP) (human) (UniProt P08709); assay: cell-based or functional assay
[2] = target: Tissue factor (TF), P13726; assay: cell-based or functional assay
Sequence of Tissue factor (TF), P13726 (P13726 33-295): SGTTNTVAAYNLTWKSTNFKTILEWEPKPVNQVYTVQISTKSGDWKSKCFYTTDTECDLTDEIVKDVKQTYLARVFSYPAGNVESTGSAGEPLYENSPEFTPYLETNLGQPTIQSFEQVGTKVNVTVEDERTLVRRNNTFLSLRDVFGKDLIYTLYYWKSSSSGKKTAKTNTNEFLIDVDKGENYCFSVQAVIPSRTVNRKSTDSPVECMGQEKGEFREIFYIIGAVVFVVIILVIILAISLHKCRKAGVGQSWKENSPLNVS

Molecule: Tissue factor pathway inhibitor (TFPI) (from UniProt P10646 29-304)
- sensitivity of FVIIa/TF generation of FXa to TFPI inhibition, relative to MOD-5000 [1]: 124%

B1: MOD-5014 (FVIIa-CTP3; activated Factor VII-CTP-CTP-CTP), P08709 61-212 (enzyme)
chain 1: ANAFLEELRPGSLERECKEEQCSFEEAREIFKDAERTKLFWISYSDGDQCASSPCQNGGSCKDQLQSYICFCLPAFEGRNCETHKDDQLICVNENGGCEQYCSDHTGTKRSCRCHEGYSLLADGVSCTPTVEYPCGKIPILEKRNASKPQGR
chain 2: IVGGKVCPKGECPWQVLLLVNGAQLCGGTLINTIWVVSAAHCFDKIKNWRNLIAVLGEHDLSEHDGDEQSRRVAQVIIPSTYVPGTTNHDIALLRLHQPVVLTDHVVPLCLPERTFSERTLAFVRFSLVSGWGQLLDRGATALELMVLNVPRLMTQDCLQQSRKVGDSPNITEYMFCAGYSDGSKDSCKGDSGGPHATHYRGTWYLTGIVSWGQGCATVGHFGVYTRVSQYIEWLQKLMRSEPRPGVLLRAPFPSSSSKAPPPSLPSPSRLPGPSDTPILPQSSSSKAPPPSLPSPSRLPGPSDTPILPQSSSSKAPPPSLPSPSRLPGPSDTPILPQ
modifications: here or on the partner: CTP units may be O-glycosylated (sites not given); gamma-carboxyglutamic acid (Gla) residues in the N-terminal region (positions not given)
- ETP (TG; MOD-5014 1.25 ug/ml + TF 0.5 pM; run 1) [2]: 264
- ETP (TG; MOD-5014 1.25 ug/ml + TF 1 pM; run 1) [2]: 484
- ETP (TG; MOD-5014 1.25 ug/ml + TF 2.5 pM; run 1) [2]: 1120
- ETP (TG; MOD-5014 1.25 ug/ml + TF 5 pM; run 1) [2]: 1600
- ETP (TG; MOD-5014 2.5 ug/ml + TF 0.5 pM; run 1) [2]: 245
- ETP (TG; MOD-5014 2.5 ug/ml + TF 0.5 pM; run 2) [2]: 317
- ETP (TG; MOD-5014 2.5 ug/ml + TF 1 pM; run 1) [2]: 448
- ETP (TG; MOD-5014 2.5 ug/ml + TF 1 pM; run 2) [2]: 760
- ETP (TG; MOD-5014 2.5 ug/ml + TF 2.5 pM; run 1) [2]: 1030
- ETP (TG; MOD-5014 2.5 ug/ml + TF 2.5 pM; run 2) [2]: 1110
- ETP (TG; MOD-5014 2.5 ug/ml + TF 5 pM; run 1) [2]: 1550
- ETP (TG; MOD-5014 2.5 ug/ml + TF 5 pM; run 2) [2]: 1600
- ETP (TG; MOD-5014 5 ug/ml + TF 0.5 pM; run 1) [2]: 344
- ETP (TG; MOD-5014 5 ug/ml + TF 1 pM; run 1) [2]: 490
- ETP (TG; MOD-5014 5 ug/ml + TF 2.5 pM; run 1) [2]: 982
- ETP (TG; MOD-5014 5 ug/ml + TF 5 pM; run 1) [2]: 1510
- ETP (TG; MOD-5014 10 ug/ml + TF 0.5 pM; run 2) [2]: 460
- ETP (TG; MOD-5014 10 ug/ml + TF 1 pM; run 2) [2]: 754
- ETP (TG; MOD-5014 10 ug/ml + TF 2.5 pM; run 2) [2]: 1060
- ETP (TG; MOD-5014 10 ug/ml + TF 5 pM; run 2) [2]: 1600
- ETP; thrombin generation in severe hemophilia A pooled plasma, MOD-5014 5 ug/kg (FIG. 83), TF 0.5 pM, run #2 [2]: 354
- ETP; thrombin generation in severe hemophilia A pooled plasma, MOD-5014 5 ug/kg (FIG. 83), TF 1 pM, run #2 [2]: 754
- ETP; thrombin generation in severe hemophilia A pooled plasma, MOD-5014 5 ug/kg (FIG. 83), TF 2.5 pM, run #2 [2]: 1010
- ETP; thrombin generation in severe hemophilia A pooled plasma, MOD-5014 5 ug/kg (FIG. 83), TF 5 pM, run #2 [2]: 1530
- Lag time (TG; MOD-5014 1.25 ug/ml + TF 0.5 pM; run 1) [2]: 4.67 min
- Lag time (TG; MOD-5014 1.25 ug/ml + TF 1 pM; run 1) [2]: 2.67 min
- Lag time (TG; MOD-5014 1.25 ug/ml + TF 2.5 pM; run 1) [2]: 2.33 min
- Lag time (TG; MOD-5014 1.25 ug/ml + TF 5 pM; run 1) [2]: 1.33 min
- Lag time (TG; MOD-5014 2.5 ug/ml + TF 0.5 pM; run 1) [2]: 6.67 min
- Lag time (TG; MOD-5014 2.5 ug/ml + TF 1 pM; run 1) [2]: 3 min
- Lag time (TG; MOD-5014 2.5 ug/ml + TF 1 pM; run 2) [2]: 3.33 min
- Lag time (TG; MOD-5014 2.5 ug/ml + TF 2.5 pM; run 1) [2]: 2.63 min
- Lag time (TG; MOD-5014 2.5 ug/ml + TF 2.5 pM; run 2) [2]: 2.67 min
- Lag time (TG; MOD-5014 2.5 ug/ml + TF 5 pM; run 1) [2]: 3.67 min
- Lag time (TG; MOD-5014 2.5 ug/ml + TF 5 pM; run 2) [2]: 1.67 min
- Lag time (TG; MOD-5014 5 ug/ml + TF 0.5 pM; run 1) [2]: 5.67 min
- Lag time (TG; MOD-5014 5 ug/ml + TF 1 pM; run 1) [2]: 3 min
- Lag time (TG; MOD-5014 5 ug/ml + TF 2.5 pM; run 1) [2]: 3 min
- Lag time (TG; MOD-5014 5 ug/ml + TF 5 pM; run 1) [2]: 1.67 min
- Lag time (TG; MOD-5014 10 ug/ml + TF 0.5 pM; run 2) [2]: 8.67 min
- Lag time (TG; MOD-5014 10 ug/ml + TF 2.5 pM; run 2) [2]: 3 min
- Lag time (TG; MOD-5014 10 ug/ml + TF 5 pM; run 2) [2]: 1.67 min
- Lag time; thrombin generation in severe hemophilia A pooled plasma, MOD-5014 5 ug/kg (FIG. 83), TF 0.5 pM, run #2 [2]: 7
- Lag time; thrombin generation in severe hemophilia A pooled plasma, MOD-5014 5 ug/kg (FIG. 83), TF 1 pM, run #2 [2]: 3.67
- Lag time; thrombin generation in severe hemophilia A pooled plasma, MOD-5014 5 ug/kg (FIG. 83), TF 2.5 pM, run #2 [2]: 2.67
- Lag time; thrombin generation in severe hemophilia A pooled plasma, MOD-5014 5 ug/kg (FIG. 83), TF 5 pM, run #2 [2]: 2
- Peak (TG; MOD-5014 1.25 ug/ml + TF 0.5 pM; run 1) [2]: 9.04
- Peak (TG; MOD-5014 1.25 ug/ml + TF 1 pM; run 1) [2]: 27.4
- Peak (TG; MOD-5014 1.25 ug/ml + TF 2.5 pM; run 1) [2]: 99.1
- Peak (TG; MOD-5014 1.25 ug/ml + TF 5 pM; run 1) [2]: 231
- Peak (TG; MOD-5014 2.5 ug/ml + TF 0.5 pM; run 1) [2]: 10.3
- Peak (TG; MOD-5014 2.5 ug/ml + TF 0.5 pM; run 2) [2]: 11.2
- Peak (TG; MOD-5014 2.5 ug/ml + TF 1 pM; run 1) [2]: 22.6
- Peak (TG; MOD-5014 2.5 ug/ml + TF 1 pM; run 2) [2]: 30.4
- Peak (TG; MOD-5014 2.5 ug/ml + TF 2.5 pM; run 1) [2]: 93.2
- Peak (TG; MOD-5014 2.5 ug/ml + TF 2.5 pM; run 2) [2]: 105
- Peak (TG; MOD-5014 2.5 ug/ml + TF 5 pM; run 1) [2]: 241
- Peak (TG; MOD-5014 2.5 ug/ml + TF 5 pM; run 2) [2]: 245
- Peak (TG; MOD-5014 5 ug/ml + TF 0.5 pM; run 1) [2]: 13.2
- Peak (TG; MOD-5014 5 ug/ml + TF 1 pM; run 1) [2]: 28.3
- Peak (TG; MOD-5014 5 ug/ml + TF 2.5 pM; run 1) [2]: 94.2
- Peak (TG; MOD-5014 5 ug/ml + TF 5 pM; run 1) [2]: 261
- Peak (TG; MOD-5014 10 ug/ml + TF 1 pM; run 2) [2]: 32.2
- Peak (TG; MOD-5014 10 ug/ml + TF 2.5 pM; run 2) [2]: 92.2
- Peak (TG; MOD-5014 10 ug/ml + TF 5 pM; run 2) [2]: 236
- Peak; thrombin generation in severe hemophilia A pooled plasma, MOD-5014 5 ug/kg (FIG. 83), TF 0.5 pM, run #2 [2]: 14.3
- Peak; thrombin generation in severe hemophilia A pooled plasma, MOD-5014 5 ug/kg (FIG. 83), TF 1 pM, run #2 [2]: 28.6
- Peak; thrombin generation in severe hemophilia A pooled plasma, MOD-5014 5 ug/kg (FIG. 83), TF 2.5 pM, run #2 [2]: 104
- Peak; thrombin generation in severe hemophilia A pooled plasma, MOD-5014 5 ug/kg (FIG. 83), TF 5 pM, run #2 [2]: 254
- StartTail (TG; MOD-5014 1.25 ug/ml + TF 0.5 pM; run 1) [2]: 75
- StartTail (TG; MOD-5014 1.25 ug/ml + TF 1 pM; run 1) [2]: 40
- StartTail (TG; MOD-5014 1.25 ug/ml + TF 2.5 pM; run 1) [2]: 33
- StartTail (TG; MOD-5014 1.25 ug/ml + TF 5 pM; run 1) [2]: 25
- StartTail (TG; MOD-5014 2.5 ug/ml + TF 0.5 pM; run 1) [2]: 64
- StartTail (TG; MOD-5014 2.5 ug/ml + TF 0.5 pM; run 2) [2]: 75
- StartTail (TG; MOD-5014 2.5 ug/ml + TF 1 pM; run 1) [2]: 56
- StartTail (TG; MOD-5014 2.5 ug/ml + TF 2.5 pM; run 1) [2]: 34
- StartTail (TG; MOD-5014 2.5 ug/ml + TF 2.5 pM; run 2) [2]: 31
- StartTail (TG; MOD-5014 2.5 ug/ml + TF 5 pM; run 1) [2]: 23
- StartTail (TG; MOD-5014 2.5 ug/ml + TF 5 pM; run 2) [2]: 24
- StartTail (TG; MOD-5014 5 ug/ml + TF 0.5 pM; run 1) [2]: 75
- StartTail (TG; MOD-5014 5 ug/ml + TF 1 pM; run 1) [2]: 50
- StartTail (TG; MOD-5014 5 ug/ml + TF 2.5 pM; run 1) [2]: 38
- StartTail (TG; MOD-5014 10 ug/ml + TF 0.5 pM; run 2) [2]: 72
- StartTail (TG; MOD-5014 10 ug/ml + TF 2.5 pM; run 2) [2]: 34
- StartTail (TG; MOD-5014 10 ug/ml + TF 5 pM; run 2) [2]: 25
- StartTail; thrombin generation in severe hemophilia A pooled plasma, MOD-5014 5 ug/kg (FIG. 83), TF 1 pM, run #2 [2]: 69
- StartTail; thrombin generation in severe hemophilia A pooled plasma, MOD-5014 5 ug/kg (FIG. 83), TF 2.5 pM, run #2 [2]: 30
- StartTail; thrombin generation in severe hemophilia A pooled plasma, MOD-5014 5 ug/kg (FIG. 83), TF 5 pM, run #2 [2]: 23
- tt Peak (TG; MOD-5014 1.25 ug/ml + TF 0.5 pM; run 1) [2]: 22.3
- tt Peak (TG; MOD-5014 1.25 ug/ml + TF 1 pM; run 1) [2]: 10.3
- tt Peak (TG; MOD-5014 1.25 ug/ml + TF 2.5 pM; run 1) [2]: 8
- tt Peak (TG; MOD-5014 1.25 ug/ml + TF 5 pM; run 1) [2]: 4.67
- tt Peak (TG; MOD-5014 2.5 ug/ml + TF 0.5 pM; run 1) [2]: 22
- tt Peak (TG; MOD-5014 2.5 ug/ml + TF 2.5 pM; run 1) [2]: 8.35
- tt Peak (TG; MOD-5014 2.5 ug/ml + TF 2.5 pM; run 2) [2]: 8.33
- tt Peak (TG; MOD-5014 2.5 ug/ml + TF 5 pM; run 2) [2]: 4.67
- tt Peak (TG; MOD-5014 5 ug/ml + TF 0.5 pM; run 1) [2]: 21.3
- tt Peak (TG; MOD-5014 5 ug/ml + TF 1 pM; run 1) [2]: 10.7
- tt Peak (TG; MOD-5014 5 ug/ml + TF 2.5 pM; run 1) [2]: 8.33
- tt Peak (TG; MOD-5014 5 ug/ml + TF 5 pM; run 1) [2]: 4.67
- tt Peak (TG; MOD-5014 10 ug/ml + TF 1 pM; run 2) [2]: 33.7
- tt Peak (TG; MOD-5014 10 ug/ml + TF 2.5 pM; run 2) [2]: 8.67
- tt Peak; thrombin generation in severe hemophilia A pooled plasma, MOD-5014 5 ug/kg (FIG. 83), TF 0.5 pM, run #2 [2]: 21.3
- tt Peak; thrombin generation in severe hemophilia A pooled plasma, MOD-5014 5 ug/kg (FIG. 83), TF 1 pM, run #2 [2]: 12.3
- tt Peak; thrombin generation in severe hemophilia A pooled plasma, MOD-5014 5 ug/kg (FIG. 83), TF 2.5 pM, run #2 [2]: 7.67
- tt Peak; thrombin generation in severe hemophilia A pooled plasma, MOD-5014 5 ug/kg (FIG. 83), TF 5 pM, run #2 [2]: 4.67
